Experimental data: publication PMC7243059 (ACS nano, 2019)
Where “and” joins values, the source holds several entries; their conditions need not be identical. Identical values can stand only once. Like-named read-outs stand apart in the source and are kept apart here.

Columns and labels:
SAXS [1] = biological target: the molecule itself; assay: SAXS
SAXS [2] = biological target: the molecule itself; assay: SAXS; remark: listed apart in the source

B1: Hepatitis B virus capsid protein assembly domain (cp149) dimer (domain or fragment)
chain: MDIDPYKEFGATVELLSFLPSDFFPSVRDLLDTAAALYRDALESPEHCSPHHTALRQAILCWGDLMTLATWVGTNLEDPASRDLVVSYVNTNVGLKFRQLLWFHISCLTFGRETVLEYLVSFGVWIRTPPAYRPPNAPILSTLPETTVV
Q: With B1 as the protein, how does the “stoichiometry N” value (SAXS [1]) read?
A: Its value is 2.

Q: And the “stoichiometry N” value (SAXS [2])?
A: The value was 240 monomers and 180 monomers.
